Target: the molecule itself
Assay: X-ray crystal structure of human dCK
From the text: Crystals were transferred to a cryoprotectant solution that in the case of the citrate condition was made of mineral oil (Sigma) while for the crystals grown in PEG it was composed of the mother liquor and 10% (w/v) xylitol-10% (w/v) sucrose. Once the crystals were mounted in loops, they were frozen by directly immersing them in liquid nitrogen. X-ray data were collected at the Advanced Photon Source using the BioCARS beamlines BM-C and BM-D, and the SERCAT beamline ID-22.
Data for the MAD data set were collected to 2.3 Å resolution. A partially built model into the MAD electron density was used to solve the tetragonal crystals. The electron density for dCK extended to the last residue (Leu260), while the N-terminus (residues 1 to 19) was flexible and could not be modeled. […] The ligands were refined without conformational torsion-angle restraints in order to prevent bias towards a particular ring conformation for the sugars.

B1: Human deoxycytidine kinase (dCK), wild type (enzyme)
chain: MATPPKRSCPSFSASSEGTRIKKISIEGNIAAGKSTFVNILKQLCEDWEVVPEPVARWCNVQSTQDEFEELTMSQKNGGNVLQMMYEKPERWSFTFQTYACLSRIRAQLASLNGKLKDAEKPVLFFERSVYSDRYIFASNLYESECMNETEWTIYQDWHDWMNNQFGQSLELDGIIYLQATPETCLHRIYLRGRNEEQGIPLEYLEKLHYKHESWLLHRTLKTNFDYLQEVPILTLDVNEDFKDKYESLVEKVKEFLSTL
modifications: selenomethionine-substituted protein was used for the MAD phasing data set
notes: Recombinant protein from E. coli; the His-tag was cleaved by thrombin before crystallisation; Residues 1 to 19 were flexible and not modelled; It is a homodimer in the crystal structure; also called human dCK; WT dCK
B1: binds.
